Earlier results as cited in PMC9313406.

Target: ACE2 (dimeric) (Homo sapiens) (UniProt Q9BYF1)
Assay: SPR

Sequence of ACE2 (dimeric) (Homo sapiens) (Q9BYF1 18-740): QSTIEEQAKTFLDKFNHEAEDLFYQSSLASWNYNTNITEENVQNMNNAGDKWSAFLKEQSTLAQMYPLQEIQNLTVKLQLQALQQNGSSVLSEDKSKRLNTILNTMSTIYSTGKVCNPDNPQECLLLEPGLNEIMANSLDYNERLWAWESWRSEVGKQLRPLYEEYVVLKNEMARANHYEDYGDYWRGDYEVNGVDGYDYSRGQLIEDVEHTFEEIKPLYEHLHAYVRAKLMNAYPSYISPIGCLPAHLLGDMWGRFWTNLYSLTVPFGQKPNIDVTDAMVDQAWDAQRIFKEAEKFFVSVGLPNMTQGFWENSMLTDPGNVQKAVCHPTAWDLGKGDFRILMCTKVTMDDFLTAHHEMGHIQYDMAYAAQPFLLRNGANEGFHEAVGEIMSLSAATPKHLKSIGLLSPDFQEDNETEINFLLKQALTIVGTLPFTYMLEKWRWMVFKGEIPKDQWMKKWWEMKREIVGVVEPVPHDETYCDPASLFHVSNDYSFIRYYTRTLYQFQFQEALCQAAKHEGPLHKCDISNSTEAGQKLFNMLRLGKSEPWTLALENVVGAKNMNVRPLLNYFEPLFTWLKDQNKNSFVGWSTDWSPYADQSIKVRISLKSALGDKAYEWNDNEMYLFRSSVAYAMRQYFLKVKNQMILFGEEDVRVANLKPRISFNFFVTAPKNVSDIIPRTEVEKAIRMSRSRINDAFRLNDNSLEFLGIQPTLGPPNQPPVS

In the case of Spike protein (from UniProt P0DTC2), the Kd is listed as 0.283 nM.
